Measured values reported in US20250264476A1, “AMINO ACID-SPECIFIC BINDER AND SELECTIVELY IDENTIFYING AN AMINO ACID” (Government of the United States of America, as represented …, priority 2021, published 2025).

Tested on: biotinylated peptides that vary only by their N-terminal amino acid
Assay: Bio-layer interferometry (BLI) binding of ClpS to biotinylated peptides on streptavidin probe
Settings: ClpS at 0.312-40 μM in 20 mM HEPES pH 8, 150 mM KCl, 0.1% BSA, 0.05% Tween-20
Protocol: The initial binding activity of T. elongatus ClpS2 was characterized using bio-laver interferometry (BLI) In BLI, a functionalized fiber-optic probe is placed in a solution of analyte and the accumulation of analyte on the functional group of the probe is measured by changes in reflected light within the probe. A BLI probe functionalized with streptavidin is allowed to accumulate biotinylated peptide. Probes with peptide are then placed in solutions of ClpS of varying concentration and allowed to equilibrate. BLI response is then graphed to concentration to establish a binding curve. Dilutions of T. elongatus ClpS2 were made in 20 mM HEPES pH 8, 150 mM KCl, 0.1% BSA, and 0.05% Tween-20 at concentrations of 0.312, 0.625, 1.25, 2.5, 5, 10, 20, and 40 μM.
With regard to peptides, all peptides are named by indicating the first two residues, with the full sequence available in Table 3. All of the peptides had the same sequence for the C-terminal end of the peptide, XXAVECK (Sequence ID No. 18), where the N-terminal amino acids are varied. The peptides also contained a biotin linked via the lysine side chain on the C-terminal residue. X1G2 peptides started from a lyophilized form. Peptides were resuspended in 1×DPBS and diluted to the appropriate concentration into the experiment buffer. […]

Chain of biotinylated peptides that vary only by their N-terminal amino acid (as listed by the source): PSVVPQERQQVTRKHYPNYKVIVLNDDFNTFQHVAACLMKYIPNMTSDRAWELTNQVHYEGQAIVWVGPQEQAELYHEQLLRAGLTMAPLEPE

B1: T. elongatus ClpS2: wild-type ClpS protein, N-End Rule Pathway adaptor protein, parent of the engineered variants (protein, listed as Thermosynechococcus elongatus)
chain: ASVVPQEGQQVTRKHYPNYKVIVLNDDFNTFRHVAACLMKYIPNMTSDRAWELTNQVHYEGQAIVWVGPQEQAELYHEQLLRAGLTMAPLEPEGS
B1 was tested, and the “binding preference across four peptides that vary only by their N-terminal amino acid” value was “strong preference for binding leucine”.
